Holding throughout (test): fluorescence polarization
On the technique in general: In fluorescence polarisation assays a small probe gives low polarisation when free and higher when bound to something large.

Data set [1] concerns dNTR-PARP-2. To be noted: 5' phosphate on one strand, FP: 5 nM labeled DNA, 30 min, RT, PARP-1/-2 buffer per cited ref 19, PARP-3 in 12 mM HEPES pH 8.0, 30 mM KCl (low) or 60 mM KCl (intermediate), 0.12 mM EDTA.
Data set [2] relates to PARP-2 N116A. To be noted: 5' phosphate on one strand, FP: 5 nM labeled DNA, 30 min, RT, PARP-1/-2 buffer per cited ref 19, PARP-3 in 12 mM HEPES pH 8.0, 30 mM KCl (low) or 60 mM KCl (intermediate), 0.12 mM EDTA.
In data set [3] the test system is PARP-2 R140A. To be noted: 5' phosphate on one strand, FP: 5 nM labeled DNA, 30 min, RT, PARP-1/-2 buffer per cited ref 19, PARP-3 in 12 mM HEPES pH 8.0, 30 mM KCl (low) or 60 mM KCl (intermediate), 0.12 mM EDTA.
Data set [4] has as its system PARP-2 Y188F. To be noted: 5' phosphate on one strand, FP: 5 nM labeled DNA, 30 min, RT, PARP-1/-2 buffer per cited ref 19, PARP-3 in 12 mM HEPES pH 8.0, 30 mM KCl (low) or 60 mM KCl (intermediate), 0.12 mM EDTA.
In data set [5] the test system is PARP-2 W138A. To be noted: 5' phosphate on one strand, FP: 5 nM labeled DNA, 30 min, RT, PARP-1/-2 buffer per cited ref 19, PARP-3 in 12 mM HEPES pH 8.0, 30 mM KCl (low) or 60 mM KCl (intermediate), 0.12 mM EDTA.
The test system of data set [6] is PARP-2 WT. To be noted: none, FP: 5 nM labeled DNA, 30 min, RT, PARP-1/-2 buffer per cited ref 19, PARP-3 in 12 mM HEPES pH 8.0, 30 mM KCl (low) or 60 mM KCl (intermediate), 0.12 mM EDTA.
The subject of data set [7] is dNTR-PARP-3. To be noted: low ionic strength buffer?, 5' phosphate at nick, position 24, FP: 5 nM labeled DNA, 30 min, RT, PARP-1/-2 buffer per cited ref 19, PARP-3 in 12 mM HEPES pH 8.0, 30 mM KCl (low) or 60 mM KCl (intermediate), 0.12 mM EDTA.
In data set [8] the test system is PARP-3 R103A. To be noted: 5' phosphate at nick, position 24, FP: 5 nM labeled DNA, 30 min, RT, PARP-1/-2 buffer per cited ref 19, PARP-3 in 12 mM HEPES pH 8.0, 30 mM KCl (low) or 60 mM KCl (intermediate), 0.12 mM EDTA.
Data set [9] concerns PARP-3 Y150F. To be noted: 5' phosphate at nick, position 24, FP: 5 nM labeled DNA, 30 min, RT, PARP-1/-2 buffer per cited ref 19, PARP-3 in 12 mM HEPES pH 8.0, 30 mM KCl (low) or 60 mM KCl (intermediate), 0.12 mM EDTA.

The text below walks through data of PMC4081085.

Substance 28-bp duplex 5'P (template 18) showed a binding signal (fold lower affinity than WT) in [1] of 4. In addition, the binding signal (% of WT affinity) in data set [2] was found to be 45; in [3], 25; in data set [4], 7; in [5], 28.
Turning to 28-bp duplex 5'OH (non-phosphorylated), the binding signal (fold lower affinity than for 5'P DNA) in [6] is 2.5.
The substance 47-bp duplex with 5'P nick (template 8) yielded a binding signal (fold lower affinity than WT) in data set [7] of 3.5. For the same substance, the binding signal (% of WT affinity) is 25 in data set [8] and 54 in data set [9].
